Measured values: patent US20250122303A1, “TREATMENT AND PREVENTION OF CANCER USING HER3 ANTIGEN-BINDING MOLECULES” (Hummingbird Bioscience Pte. Ltd., priority 2021, published 2025)

Assays:
[1] = Toxicity in BALB/c mice (haematology, clinical chemistry, observations); format: in vivo, mouse; details: single IP dose 1000 μg
Experimental: Hemotoxicity was investigated in an experiment in which 6-8 week old female BALB/c mice (20-25 g) were injected intraperitoneally with a single dose of 1000 μg anti-HER3 10D1 antibody or an equal volume of PBS. Blood samples were obtained at 96 hours post injection and analysed for numbers of different types of white blood cells by flow cytometry and electrolyte indices for NA^+, K^+, and Cl^−.
Mice were also analysed for correlates hepatotoxicity, nephrotoxicity and pancreatic toxicity at 96 hours post injection. […] Left bars represent vehicle, right bars represent 10D1 treatment, end points of the Charles River reference range indicated with dotted lines.
3 mice were injected with each treatment, 4 mice were injected with PBS control. Blood samples were obtained at 96 hours post injection and analysed for RBC indices (total RBC count, haematocrit, haemoglobin, platelet count, mean corpuscular volume, mean corpuscular haemoglobin, mean corpuscular haemoglobin concentration) and WBC indices (total WBC count, lymphocyte count, neutrophil count, monocyte count). Analysis was performed using a HM5 Hematology Analyser.
A further study was performed in the BALB/c mice to assess the toxicological effects of repeat doses of 500 μg (˜25 mg/kg) 10D1 F.FcA or 10D1F.FcB. Antibody was administered once a week for four weeks. Blood was obtained 28 days after the first administration.

cynomolgus macaque HER3 = assay: ELISA cross-reactivity, cynomolgus macaque HER3; format: binding
Experimental: ELISAs were used to determine the binding specificity of the antibodies. The antibodies were analysed for binding to human HER3 polypeptide, as well as respective mouse, rat and monkey homologues of HER3 (Sino Biological Inc., China). The antibodies were also analysed for their ability to bind to human EGFR and human HER2 (Sino Biological Inc., China).
ELISAs were carried out according to standard protocols. Briefly, 96-well plates (Nunc, Denmark) were coated with 0.1 μg/ml of target polypeptide in phosphate-buffered saline (PBS) for 16 h at 4° C. After blocking for 1 h with 1% BSA in Tris buffer saline (TBS) at room temperature, the anti-HER3 antibody was serially diluted with the highest concentration being 10 μg/ml, and added to the plate. Post 1 h incubation at room temperature, plates were washed three times with TBS containing 0.05% Tween 20 (TBS-T) and were then incubated with a HRP-conjugated anti-His antibody (Life Technologies, Inc., USA) for 1 h at room temperature. After washing, plates were developed with colorimetric detection substrate 3,3′,5,5′-tetramethylbenzidine (Turbo-TMB; Pierce, USA) for 10 min. The reaction was stopped with 2M H2SO4, and OD was measured at 450 nm. […]

[2] = format: physicochemical; details: 0.2 mg/mL in PBS, three samples
Experimental: 3.4 Analysis of thermostability by Differential Scanning Fluorimetry Briefly, triplicate reaction mixes of antibodies at 0.2 mg/mL and SYPRO Orange dye (ThermoFisher) were prepared in 25 μL of PBS, transferred to wells of MicroAmp Optical 96-Well Reaction Plates (ThermoFisher), and sealed with MicroAmp Optical Adhesive Film (ThermoFisher). Melting curves were run in a 7500 fast Real-Time PCR system (Applied Biosystems) selecting TAMRA as reporter and ROX as passive reference. The thermal profile included an initial step of 2 min at 25° C. and a final step of 2 min at 99° C., with a ramp rate of 1.2%. The first derivative of the raw data was plotted as a function of temperature to obtain the derivative melting curves. Melting temperatures (Tm) of the antibodies were extracted from the peaks of the derivative curves.
The thermostability of the variant was also analysed by Differential Scanning Fluorimetry analysis as described in Example 3.4.

B1: 10D1: anti-HER3 antibody clone, VH SEQ ID NO:24, VL SEQ ID NO:74; [1] of Example 2.2 (antibody, V domains shown)
VH: DVQLQESGPDLVKPSQSLSLTCTVTGYSITSGYSWHWIRQFPGNKLEWMGSIHYSGGTNYNPSLKSRISITRDTSKNQFFLQLNSVTTEDTATYFCARMTTAPRYPFDYWGQGTTLTVSS
VL: DIVMTQSQKFMSTSVGDRVSVTCKASQIVGSNVAWYQQKPGQSPKPLIYSASYRYSGVPDRFTASGSGTDFTLTITNVQSEDLAEYFCQQYSSHPLTFGAGTKLELK
[1]
  clinical signs, gross necroscopy or weight: No differences
[1]; 96 hours
  kidney, liver or pancreatic indices: no effect on the kidney, liver or pancreatic indices
  numbers of different blood cell types and electrolyte indices: within the Charles River reference range
Cynomolgus macaque HER3
  binding / cross-reactivity with cynomolgus macaque HER3: substantial cross-reactivity
[2]
  Tm: 70.3 °C
